Reference: FireProtDB (doi:10.1016/0022-2836(91)90725-l)

B1: Ribonuclease, P00648 (parent)
chain: MMKMEGIALKKRLSWISVCLLVLVSAAGMLFSTAAKTETSSHKAHTEAQVINTFDGVADYLQTYHKLPDNYITKSEAQALGWVASKGNLADVAPGKSIGGDIFSNREGKLPGKSGRTWREADINYTSGFRNSDRILYSSDWLIYKTTDHYQTFTKIR

Variants of: B1
Details: Bacillus amyloliquefaciens; pH 6.3; 25 °C; Urea; Fluorescence; MES 1.00 M; NaCl 613 mM; reversible: yes; structure 1BNI; whole UniProt chain shown

Row | Variant | ddG of mutation (higher = less stable) | denaturant m value | denaturant midpoint (higher = more stable) | unfolding free energy
1 | Y60A Y64A | 4.76 kcal/mol | 2.22 kcal/mol/M | 2.43 M | 5.39 kcal/mol
2 | Y60F | 0.63 kcal/mol | 2.17 kcal/mol/M | 4.38 M | 9.52 kcal/mol
3 | Y60A | 3.69 kcal/mol | 2.26 kcal/mol/M | 2.86 M | 6.46 kcal/mol
4 | Y64F | 0.58 kcal/mol | 2.16 kcal/mol/M | 4.43 M | 9.57 kcal/mol
5 | Y60F Y64F | 1.23 kcal/mol | 2.08 kcal/mol/M | 4.29 M | 8.92 kcal/mol
